B1: 40-nt ssDNA (ssDNA)
DNA: ACTGGACCAAATTCTAATGTGTGTGTACGAAGCATAGCGG

Tests used:
NCp15 (p9 + p6) (HIV-1) = NCp15 (p9 + p6) (HIV-1) (UniProt P12493); assay: fluorescence anisotropy
[1] = target: NCp7 (mature nucleocapsid) (HIV-1) (UniProt P12493); assay: fluorescence anisotropy
NCp9 (p7 + SP2) (HIV-1) = NCp9 (p7 + SP2) (HIV-1) (UniProt P12493); assay: fluorescence anisotropy
NCp9 (p7 + SP2) = NCp9 (p7 + SP2) (HIV-1, UniProt P12493 378-448); assay: fluorescence anisotropy salt titration; Kd extrapolated to 1 M NaCl; Zeff 4.3 ± 0.7; details: protein: recombinant; tags: none (Trx tag removed by TEV); label: 5' FAM; single strand
[2] = target: NCp7 (mature nucleocapsid) (HIV-1, UniProt P12493 378-432); assay: fluorescence anisotropy salt titration; Kd extrapolated to 1 M NaCl; Zeff 3.0 ± 0.3; details: protein: recombinant; tags: none (Trx tag removed by TEV); label: 5' FAM; single strand
NCp15 (p9 + p6) = NCp15 (p9 + p6) (HIV-1, UniProt P12493 378-500); assay: fluorescence anisotropy salt titration; Kd extrapolated to 1 M NaCl; Zeff 3.8 ± 0.7; details: protein: recombinant; tags: none (Trx tag removed by TEV); label: 5' FAM; single strand

Molecule | Kd (NCp15 (p9 + p6) (HIV-1)) [nM] | Kd [1] [nM] | Kd (NCp9 (p7 + SP2) (HIV-1)) [nM] | Kd (NCp9 (p7 + SP2)) [µM] | Kd [2] [µM] | Kd (NCp15 (p9 + p6)) [µM]
shortPBS RNA (105 nt) | 278 | 231 | 240 |  |  | 
B1 |  |  |  | 92 | 23 | 78

— PMC4066767, “Distinct nucleic acid interaction properties of HIV-1 nucleocapsid protein precursor NCp15 explain reduced viral infectivity”
